From US20200399375A1 (SUZHOU SUNCADIA BIOPHARMACEUTICALS, published 2020)
Values belong to the binder of their own block, whether it stands above or below them.

Columns and labels:
[1] = target: T1, cynomolgus PD-L1 antigen (Cyno PD-L-his, Sino 90251-C08H-100) (cynomolgus, UniProt G7PSE7 19-239); assay: Biacore X100, antibody captured by anti-human antibody on CM5, antigen in flow, 1:1 Langmuir
T1 construct: Bought protein; also called CynoPD-L1-his; not shown: His tag

[2] = target: T2, human PD-L1 antigen (huPD-L1-his, Sino biological, 10084-H08H-200) (human, UniProt Q9NZQ7 19-239); assay: as above
T2 construct: Bought protein; also called human PD-L1-his; not shown: His tag

[3] = target: T3, PD-L1 Fc fusion protein: PD-L1 (ECD)-Fc (human IgG1) (human); assay: blocking ELISA, PD-L1(ECD)-Fc coated, competitor biotin-human B7.1
T3 construct: Coated on the plate in Tests 1 to 3; also called huPD-L1-Fc; VKL-PD-L1(ECD)-Fc(human IgG1)

[4] = target: T3, PD-L1 Fc fusion protein: PD-L1 (ECD)-Fc …; assay: blocking ELISA, PD-L1(ECD)-Fc coated, competitor biotin-PD-1-Fc
Protocol: The dilution of biotin (Dojindo Chemical, LK03: 3 samples) and avidin (Sigma, S2438-250UG) was 6% BSA (diluted with PBS containing 0.1% Tween20), and PBS was used as coating solution. Microtitration plates were directly coated with 1 μg/ml ([…]) of PD-L1(ECD)-Fc(SEQ ID NO: 4) and incubated at 4° C. overnight. The plate was washed three times and was blocked for 2h at 37° C. with 3% BSA(diluted with PBS containing 0.1% Tween20). The plate was washed three times and 50 μl/well of cell supernatant was added to each well. Then 50 μl/well of bio-PD-1-Fc (biotin-labeled PD-1-Fc, SEQ ID NO: 5, 2 μg/ml, PD-1-FC was labeled according to the method of Dojindo Chemical Kits Biotin Labeling Kit-NH2, LK03: 3 samples) was added to each well, well-mixed by vortex, and incubated at 37° C. for 1 h. The plates were washed 6 times, followed by addition of 50 μl/well Streptavidin-Peroxidase Polymer (S2438-250UG, Sigma, which was diluted at a ratio of 1:400), and incubated on shaker for 50 min at room temperature. The plate was washed 6 times, and then I00 μl/well of TMB was added, and incubated for 5-10 min at 37° C. Then the reaction was terminated with addition of 100 μl/well of 1M H2SO₄. The absorbance value was read on microplate reader (BMG Labtech, NOVOStar) at 450 nm, and the IC₅₀ value for blocking the binding of PD-1 antibody to ligand PD-L1 was calculated.

[5] = target: T2, human PD-L1 antigen (huPD-L1-his, Sino …); assay: affinity measurement; method and antigen not named in the sentence (PD-L1)
[6] = target: T3, PD-L1 Fc fusion protein: PD-L1 (ECD)-Fc …; assay: hybridoma screening, binding ELISA on coated PD-L1(ECD)-Fc (Test 1)
Protocol: On day 10-11 after fusion, an ELISA assay was performed on PD-L1 binding according to the density of the growing cells (see Test 1). For the positive cells detected in the ELISA assay (Test 1), blockade in PD-L1/PD-1 binding was detected via ELISA analysis (see Test 2). Medium in the positive wells was changed and the positive cells were expanded to a 24-well plate depending on cell density. After re-testing, the cells transferred into the 24-well plate were used for breed conservation and first sub-cloning. The positive cells during the first sub-clone screening (see Test 1) were used for breed conservation and subjected to a second sub-cloning. The positive cells during the second sub-cloning were (see Test 1) used for breed conservation and protein expression. Hybridoma cells having blocking effect on PD-L1 and PD-1 binding (see Test 2) were obtained by multiple cell fusions.
Microtitration plates were directly coated with 1 μg/ml ([…]) of PD-L1(ECD)-Fc(SEQ ID NO: 4) and incubated at 4° C. overnight. Then the plates were blocked with 150 μl/well of PBS containing 5% Skim Milk(BD, 232100) and incubated at 4° C. overnight. […] The reaction was stopped by the addition of 50 μl/well of 1M H₂SO₄ to each well and the OD value was read on an ELISA microplate reader (BMG Labtech, NOVOStar) at a wavelength of 450 nm.

[7] = target: T2, human PD-L1 antigen (huPD-L1-his, Sino …); assay: BIACORE (Test 4)
Text: The anti-human capture antibody was covalently linked to the CM5 biochip (GE, BR-1000-12) according to the method described in the anti-human trapping kit (GE, BR-1008-39) instructions for affinity capturing the PD-L1 antibody of the present invention. Then, a series of concentrations of human PD-L1 antigen (Sino biological, 0084-H08H-200) were flowed through the surface of the biochip, and the reaction signal was detected in real time using a Biacore instrument (GE, BiacoreX100) to obtain the association and dissociation curves. Finally, the affinity values were obtained by fitting. After each cycle of dissociation was finished in the experiment, the biochip was washed and regenerated with regeneration solution in the anti-human capture kit (GE). The data obtained was analyzed by GE's BIA evaluation software using a 1:1(Langmuir) binding model. Ka (kon), kd (koff) and KD values were determined by the assay. The affinity of hybridoma antibodies and humanized antibodies has been summarized in other examples.

B1: HRP00052: 24D5(GF) IgG4 (AA) (S228P) (antibody, V domains shown)
VH: QVQLVQSGAEVKKPGASVKVSCKASGYTFTSYWMHWVRQAPGQGLEWMGRIGPNSGFTSYNEKFKNRVTMTRDTSTSTVYMELSSLRSEDTAVYYCARGGSSYDYFDYWGQGTTVTVSS
VL: DIVLTQSPASLAVSPGQRATITCRASESVSIHGTHLMHWYQQKPGQPPKLLIYAASNLESGVPARFSGSGSGTDFTLTINPVEAEDTANYYCQQSFEDPLTFGQGTKLEIKR
notes: kappa light chain; also called 24D5 29H1 GF; humanized antibody 24D5
- Kd [1]: 0.0579 nM
- koff [1]: 0.000106 s⁻¹
- kon [1]: 1.84e+06 M⁻¹ s⁻¹
- Kd [2]: 0.057 nM
- koff [2]: 0.000101 s⁻¹
- kon [2]: 1.77e+06 M⁻¹ s⁻¹
- IC50 [3]: 0.0696 mg/L
- IC50 [4]: 0.114 mg/L

B2: chimeric antibody of 24D5 with a back-mutation from serine to cysteine at position 96 (antibody, V domains shown)
VH: QVQLQQPGAELVKPGASVKLSCKASGYTFTSYWMHWVQQRPGQGLEWIGRIHPNSGGTSYNEKFKNRATLTVDKSSSTAYMQFSSLTSEDSAVYYCARGGSSYDYFDYWGQGTTLTVSS
VL: DIVLTQSPASLAVSLGQRATISCRASESVSIHGTHLMHWYQQKPGQPPKLLIYAASNLESGVPARFSGSGSETDFTLNIHPVEEEDATTYFCQQSFEDPLTFGAGTKLELK
notes: it is put on the VH because the printed VH has S at 96 and C at 22 (the disulfide partner named); also called 24D5 chimeric S96C
- binding result [5]: binds

B3: HRP00049: 9-2(H2/L10) IgG4 (AA)(S228P) (antibody, V domains shown)
VH: QVQLQESGPGLVKPSQTLSLTCTVSGGSISNDYWTWIRQHPGKGLEYIGYISYTGSTYYNPSLKSRVTISRDTSKNQFSLKLSSVTAADTAVYYCARSGGWLAPFDYWGRGTLVTVSS
VL: DIVMTQSPDSLAVSLGERATINCKSSQSLFYHSNQKHSLAWYQQKPGQPPKLLIYGASTRESGVPDRFSGSGSGTDFTLTISSLQAEDVAVYYCQQYYGYPYTFGGGTKVEIKR
notes: kappa light chain; also called humanized antibody 9-2
- Kd [1]: 0.172 nM
- koff [1]: 0.000167 s⁻¹
- kon [1]: 974000 M⁻¹ s⁻¹
- Kd [2]: 0.17 nM
- koff [2]: 0.000162 s⁻¹
- kon [2]: 952000 M⁻¹ s⁻¹
- IC50 [3]: 0.113 mg/L
- IC50 [4]: 0.174 mg/L

Other lines, results leading:

- binding result [6]: binds
B4: murine antibody of hybridoma clone 9-2 (antibody, V domains shown)
VH: EVQLQESGPGLAKPSQTLSLTCSVAGYSITNDYWNWIRKFPGNKLEYMGYISYTGSTYYNPSLKSRLSITRDTSKNQYYLQLNSVTAEDTAIYYCARSGGWLAPFDYWGRGTTLTVSS
VL: DIVMSQSPSSLVVSVGEKVIMSCKSSQSLFYRSNQKNSLAWYQQKPGQSPKLLIYGASTRESGVPDRFTGSGSGTDFTVTISSVKAEDLAVYYCQQYYGYPYTFGGGTKLEIK
notes: Mouse hybridoma antibody; also called hybridoma antibody 9-2; murine antibody 9-2

- binding result [7]: binds
B5: 9-2 chimeric antibody (antibody, V domains shown)
VH: B4 VH
VL: B4 VL
notes: also called the chimeric antibody (of 9-2)
